Read-outs that look alike come from different tables or passages of the source.
What was measured:
Assay in all cases: EMSA
[1] = target: T1, C.Csp231I (C protein, WT) (Citrobacter sp. (Csp231I R-M system), UniProt Q32WH4 1-98)
T1 sequence: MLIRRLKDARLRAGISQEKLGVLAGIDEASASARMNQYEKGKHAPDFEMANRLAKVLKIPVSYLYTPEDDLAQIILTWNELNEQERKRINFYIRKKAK

C.Csp231I C-ARQ (Cmut) = target: T2, C.Csp231I C-ARQ (Cmut) (Citrobacter sp. (Csp231I R-M system), UniProt Q32WH4 1-98, A33G;R34E;Q37A)
T2 sequence: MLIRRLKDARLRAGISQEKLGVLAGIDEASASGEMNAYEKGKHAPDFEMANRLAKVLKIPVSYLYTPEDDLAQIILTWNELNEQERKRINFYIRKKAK

[2] = target: T1, C.Csp231I (C protein, WT); remark: listed apart in the source

Binder | binding result [1] | binding result (C.Csp231I C-ARQ (Cmut)) | binding result [2]
racR (176 bp) (dsDNA) DNA 1: GCGACGCCTAACGCAATTGTCAATAGGCTGTGCCTAATGCAGTAAGGGTAGGGATTGCCTAATGTAATGCGCATAGGAGAATATTAAGCAATGCTTAGTGGTAAAGACTTAGGCCGAGCGATAGAGCAGGCCATTAACAAAAAAATCGCATCGGGATCCGTCAAATCAAAGGCGG DNA 2: CCGCCTTTGATTTGACGGATCCCGATGCGATTTTTTTGTTAATGGCCTGCTCTATCGCTCGGCCTAAGTCTTTACCACTAAGCATTGCTTAATATTCTCCTATGCGCATTACATTAGGCAATCCCTACCCTTACTGCATTAGGCACAGCCTATTGACAATTGCGTTAGGCGTCGC | binds | no binding | 
racRmut (176 bp) (dsDNA) DNA 1: GCGACGCCTAACGCAATTGTCAATAGGCTGTGCCTAATGCAGTAAGGGTAGGGATTGCCTAATGTAATGCGCATAGGAGAATATTAAGCAATGCGCATTGGTAAAGACTTAGGCCGAGCGATAGAGCAGGCCATTAACAAAAAAATCGCATCGGGATCCGTCAAATCAAAGGCGG DNA 2: CCGCCTTTGATTTGACGGATCCCGATGCGATTTTTTTGTTAATGGCCTGCTCTATCGCTCGGCCTAAGTCTTTACCAATGCGCATTGCTTAATATTCTCCTATGCGCATTACATTAGGCAATCCCTACCCTTACTGCATTAGGCACAGCCTATTGACAATTGCGTTAGGCGTCGC |  | no binding | no binding
